Measured values as given in US20070243558A1, “Peptide Stabilization” (priority 2004, published 2007).
Read-outs that look alike come from different tables or passages of the source.

Tests used:
[1] = Stability of U-INTP in samples after three days at room temperature, without and with stabilizer (Table 4); format: physicochemical; parameters: U-INTP test result, Immed.: unit not given beside the values; conditions: for U-INTP test result, 3 days + stabilizer / U-INTP, 3 days + stabilizer, in % of immed.-sample: with stabilizer
Text: Two parallel tests were done for each sample.

[2] = Stability of the same analytes in serum samples, with and without 5% DMSO (Table 3); format: physicochemical
Text: Table 3 is a test corresponding to the test of Table 2, but where the ten samples to be tested were serum samples rather than plasma samples.

[3] = Storage stability of analytes in serum sample without stabilizer (background statement); format: physicochemical; conditions: room temperature
Text: In connection with said determinations and sample handling the poor stability of gastrin-17 has proven to be a problem, due to the fact that it decomposes rapidly in the sample. […] This is in contrast to pepsinogen I and II, which retain their activity at room temperature for many days, and Helicobacter pylori antibodies, which survive for at least three days under refrigerator conditions.

[4] = room temperature; for effect of adding DMSO on the activity: EDTA-plasma samples, day 0 and day 3
Method: The effect of adding DMSO was tested on pepsinogen I, pepsinogen II, Helicobacter pylori antibodies and gastrin-17. The results are indicated at day 0 and day 3.

[5] = Sample 1, three days at room temperature
[6] = Sample 1 parall., three days at room temperature
[7] = Sample 2, three days at room temperature
[8] = Sample 2 parall., three days at room temperature
[9] = EDTA-plasma sample PL466s, 0% DMSO, day 0
[10] = EDTA-plasma sample PL466s, 0% DMSO, day 3
[11] = EDTA-plasma sample PL466s, 5% DMSO, day 0
[12] = EDTA-plasma sample PL466s, 5% DMSO, day 3
[13] = EDTA-plasma sample PL467s, 0% DMSO, day 0
[14] = EDTA-plasma sample PL467s, 0% DMSO, day 3
[15] = EDTA-plasma sample PL467s, 5% DMSO, day 0
[16] = EDTA-plasma sample PL467s, 5% DMSO, day 3
[17] = EDTA-plasma sample PL471s, 0% DMSO, day 0
[18] = EDTA-plasma sample PL471s, 0% DMSO, day 3
[19] = EDTA-plasma sample PL471s, 5% DMSO, day 0
[20] = EDTA-plasma sample PL471s, 5% DMSO, day 3
[21] = EDTA-plasma sample PL472s, 0% DMSO, day 0
[22] = EDTA-plasma sample PL472s, 0% DMSO, day 3
[23] = EDTA-plasma sample PL472s, 5% DMSO, day 0
[24] = EDTA-plasma sample PL472s, 5% DMSO, day 3
[25] = EDTA-plasma sample PL473s, 0% DMSO, day 0
[26] = EDTA-plasma sample PL473s, 0% DMSO, day 3
[27] = EDTA-plasma sample PL473s, 5% DMSO, day 0
[28] = EDTA-plasma sample PL473s, 5% DMSO, day 3

For “collagen I aminoterminal telopeptide [U-INTP]”, the “U-INTP test result, Immed.” value ([1]; Sample 1, immediately) was 200, the “U-INTP test result, 3 days no stabilizer” value [1, 5] was 189 and the “U-INTP, 3 days no stabilizer, in % of immed.-sample” value (“U-INTP, 3 days no stabilizer, in %” for short) [1, 5] was 94.5%. For the same molecule, the “U-INTP test result, 3 days + stabilizer” value [1, 5] was 202, the “U-INTP, 3 days + stabilizer, in % of immed.-sample” value (shortened to “U-INTP, 3 days + stabilizer, in %”) [1, 5] was 101.0% and the “U-INTP test result, Immed.” value ([1]; Sample 1 parall., immediately) was 199. For the same molecule, the “U-INTP test result, 3 days no stabilizer” value [1, 6] was 187, the “U-INTP, 3 days no stabilizer, in %” value [1, 6] was 94.0% and the “U-INTP test result, 3 days + stabilizer” value [1, 6] was 209. The “U-INTP, 3 days + stabilizer, in %” value [1, 6] was 105.0%, the “U-INTP test result, Immed.” value ([1]; Sample 2, immediately) was 113 and the “U-INTP test result, 3 days no stabilizer” value [1, 7] was 115. For the same molecule, the “U-INTP, 3 days no stabilizer, in %” value [1, 7] was 101.8%, the “U-INTP test result, 3 days + stabilizer” value [1, 7] was 144 and the “U-INTP, 3 days + stabilizer, in %” value [1, 7] was 127.4%. For the same molecule, the “U-INTP test result, Immed.” value ([1]; Sample 2 parall., immediately) was 118, the “U-INTP test result, 3 days no stabilizer” value [1, 8] was 114 and the “U-INTP, 3 days no stabilizer, in %” value [1, 8] was 96.6%. For the same molecule, the “U-INTP test result, 3 days + stabilizer” value [1, 8] was 136 and the “U-INTP, 3 days + stabilizer, in %” value [1, 8] was 115.3%.

In the case of pepsinogen I [PGI], the PGI concentration ([2]; serum sample PL411s, 0% DMSO) is reported as 283.6 µg/L, the PGI concentration ([2]; serum sample PL411s, 5% DMSO) is reported as 296.0 µg/L and the PGI concentration ([2]; serum sample PL420b, 0% DMSO) is reported as 75.5 µg/L. The PGI concentration ([2]; serum sample PL420b, 5% DMSO) was 79.3 µg/L, the PGI concentration ([2]; serum sample PL426s, 0% DMSO) was 49.7 µg/L and the PGI concentration ([2]; serum sample PL426s, 5% DMSO) was 50.6 µg/L. For the same molecule, the PGI concentration ([2]; serum sample PL438s, 0% DMSO) was 158.6 µg/L, the PGI concentration ([2]; serum sample PL438s, 5% DMSO) was 156.0 µg/L and the PGI concentration ([2]; serum sample PL439s, 0% DMSO) was 67.6 µg/L. It also gave a PGI concentration ([2]; serum sample PL439s, 5% DMSO) of 68.5 µg/L, a PGI concentration ([2]; serum sample PL447b, 0% DMSO) of 6.0 µg/L and a PGI concentration ([2]; serum sample PL447b, 5% DMSO) of 6.0 µg/L. The PGI concentration ([2]; serum sample PL454s, 0% DMSO) was 100.6 µg/L, the PGI concentration ([2]; serum sample PL454s, 5% DMSO) was 102.3 µg/L and the PGI concentration ([2]; serum sample PL455b, 0% DMSO) was 79.2 µg/L. It also gave a PGI concentration ([2]; serum sample PL455b, 5% DMSO) of 81.5 µg/L, a PGI concentration ([2]; serum sample PL457b, 0% DMSO) of 101.1 µg/L and a PGI concentration ([2]; serum sample PL457b, 5% DMSO) of 106.9 µg/L. The PGI concentration ([2]; serum sample PL458s, 0% DMSO) was 77.1 µg/L, the PGI concentration ([2]; serum sample PL458s, 5% DMSO) was 80.1 µg/L and the “time for which activity is retained” value [3] was “many days”. For the same molecule, the PGI concentration [4, 9] was 58.8 µg/L, the PGI concentration [4, 10] was 76.9 µg/L and the PGI concentration [4, 11] was 60.5 µg/L. It also gave a PGI concentration [4, 12] of 77.4 µg/L, a PGI concentration [4, 13] of 73.3 µg/L and a PGI concentration [4, 14] of 94.9 µg/L. The PGI concentration [4, 15] was 76.8 µg/L, the PGI concentration [4, 16] was 98.8 µg/L and the PGI concentration [4, 17] was 60.6 µg/L. The PGI concentration [4, 18] was 85.5 µg/L, the PGI concentration [4, 19] was 67.6 µg/L and the PGI concentration [4, 20] was 84.3 µg/L. The PGI concentration [4, 21] was 110.3 µg/L, the PGI concentration [4, 22] was 134.8 µg/L and the PGI concentration [4, 23] was 109.4 µg/L. The PGI concentration [4, 24] was 135.6 µg/L, the PGI concentration [4, 25] was 94.9 µg/L and the PGI concentration [4, 26] was 115.4 µg/L. For the same molecule, the PGI concentration [4, 27] was 94.7 µg/L, the PGI concentration [4, 28] was 102.1 µg/L and the “effect of adding DMSO on the activity” value [4] was “essentially no effect”.

B1: pepsinogen II (protein, UniProt P20142 17-388, looked up)
pro-form: AVVKVPLKKFKSIRETMKEKGLLGEFLRTHKYDPAWKYRFGDLSVTYEPMAYMDAAYFGEISIGTPPQNFLVLFDTGSSNLWVPSVYCQSQACTSHSRFNPSESSTYSTNGQTFSLQYGSGSLTGFFGYDTLTVQSIQVPNQEFGLSENEPGTNFVYAQFDGIMGLAYPALSVDEATTAMQGMVQEGALTSPVFSVYLSNQQGSSGGAVVFGGVDSSLYTGQIYWAPVTQELYWQIGIEEFLIGGQASGWCSEGCQAIVDTGTSLLTVPQQYMSALLQATGAQEDEYGQFLVNCNSIQNLPSLTFIINGVEFPLPPSSYILSNNGYCTVGVEPTYLSSQNGQPLWILGDVFLRSYYSVYDLGNNRVGFATAA
modifications: pro-form
notes: analyte determined from serum or plasma sample
In the case of B1, the PGII concentration ([2]; serum sample PL411s, 0% DMSO) is reported as 32.8 µg/L, the PGII concentration ([2]; serum sample PL411s, 5% DMSO) is reported as 33.6 µg/L and the PGII concentration ([2]; serum sample PL420b, 0% DMSO) is reported as 6.3 µg/L. The PGII concentration ([2]; serum sample PL420b, 5% DMSO) was 5.7 µg/L, the PGII concentration ([2]; serum sample PL426s, 0% DMSO) was 3.5 µg/L and the PGII concentration ([2]; serum sample PL426s, 5% DMSO) was 3.1 µg/L. It also gave a PGII concentration ([2]; serum sample PL438s, 0% DMSO) of 13.6 µg/L, a PGII concentration ([2]; serum sample PL438s, 5% DMSO) of 12.8 µg/L and a PGII concentration ([2]; serum sample PL439s, 0% DMSO) of 5.7 µg/L. It also gave a PGII concentration ([2]; serum sample PL439s, 5% DMSO) of 5.2 µg/L, a PGII concentration ([2]; serum sample PL447b, 0% DMSO) of 4.9 µg/L and a PGII concentration ([2]; serum sample PL447b, 5% DMSO) of 4.6 µg/L. The PGII concentration ([2]; serum sample PL454s, 0% DMSO) was 7.7 µg/L, the PGII concentration ([2]; serum sample PL454s, 5% DMSO) was 7.3 µg/L and the PGII concentration ([2]; serum sample PL455b, 0% DMSO) was 7.3 µg/L. It also gave a PGII concentration ([2]; serum sample PL455b, 5% DMSO) of 7.1 µg/L, a PGII concentration ([2]; serum sample PL457b, 0% DMSO) of 7.1 µg/L and a PGII concentration ([2]; serum sample PL457b, 5% DMSO) of 6 µg/L. For the same molecule, the PGII concentration ([2]; serum sample PL458s, 0% DMSO) was 6.7 µg/L, the PGII concentration ([2]; serum sample PL458s, 5% DMSO) was 5.8 µg/L and the “time for which activity is retained” value [3] was “many days”. For the same molecule, the PGII concentration [4, 9] was 6.8 µg/L, the PGII concentration [4, 10] was 8.3 µg/L and the PGII concentration [4, 11] was 6.6 µg/L. For the same molecule, the PGII concentration [4, 12] was 7.7 µg/L, the PGII concentration [4, 13] was 5 µg/L and the PGII concentration [4, 14] was 6.4 µg/L. The PGII concentration [4, 15] was 4.9 µg/L, the PGII concentration [4, 16] was 6.2 µg/L and the PGII concentration [4, 17] was 4.9 µg/L. For the same molecule, the PGII concentration [4, 18] was 5.8 µg/L, the PGII concentration [4, 19] was 4.8 µg/L and the PGII concentration [4, 20] was 5.3 µg/L. It also gave a PGII concentration [4, 21] of 5.7 µg/L, a PGII concentration [4, 22] of 7.3 µg/L and a PGII concentration [4, 23] of 5.7 µg/L. For the same molecule, the PGII concentration [4, 24] was 6.9 µg/L, the PGII concentration [4, 25] was 6.4 µg/L and the PGII concentration [4, 26] was 8.5 µg/L. The PGII concentration [4, 27] was 6.4 µg/L, the PGII concentration [4, 28] was 7.9 µg/L and the “effect of adding DMSO on the activity” value [4] was “essentially no effect”.
